The data set “SEC” deals with the molecule itself. The data set is described as follows: SEC. Background: Size exclusion chromatography separates by hydrodynamic size, large species first.
In a further data set the target is T1, PLD3(H201N,H416N) (Homo sapiens, UniProt Q8IV08 60-490, H201N;H416N).
T1 sequence: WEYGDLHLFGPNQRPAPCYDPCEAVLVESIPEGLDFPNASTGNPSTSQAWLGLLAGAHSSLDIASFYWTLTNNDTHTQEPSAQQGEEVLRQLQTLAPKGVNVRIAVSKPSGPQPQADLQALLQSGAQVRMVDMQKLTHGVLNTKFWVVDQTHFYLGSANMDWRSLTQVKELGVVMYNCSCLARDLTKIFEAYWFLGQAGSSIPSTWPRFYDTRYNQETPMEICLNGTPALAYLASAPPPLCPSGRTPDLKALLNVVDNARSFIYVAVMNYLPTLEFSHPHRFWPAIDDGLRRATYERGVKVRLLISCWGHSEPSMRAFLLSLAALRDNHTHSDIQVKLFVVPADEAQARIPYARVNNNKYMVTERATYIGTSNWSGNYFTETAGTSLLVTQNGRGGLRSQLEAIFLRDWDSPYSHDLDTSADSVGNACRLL
The data set is described as follows: fluorescence anisotropy. On the technique in general: Fluorescence polarisation rises when a labelled molecule tumbles more slowly, as on binding a larger partner.

The target in another data set is T2, PLD3 (active) (Homo sapiens, UniProt Q8IV08 60-490).
T2 sequence: T1 sequence with N142H, N357H
The data set is described as follows: cryo-EM.

Where a chain is given by its changes, count along the chain named. Numbers in names are those of the source.

B1: PLD3(V232M), soluble catalytic domain (enzyme, human)
chain: T1 sequence with N142H, V173M, N357H
Turning to B1, in the data set “SEC”, the binding result is given as “binds”. Regarding AGCUUAACCUG (ssRNA) [RNA9.2s 11 nt], the binding result in the data set with PLD3(H201N,H416N) was “no binding”.

For UCUCUCUCUCUCUCUCUCUC (ssRNA, phosphorothioate backbone) [(rU*rC*)10 ssRNA], the binding result in the data set with PLD3 (active) is reported as “binds”.
